Entries after “also recorded” stand apart in the source; their conditions may differ.
Key:
[1] = systemic administration; non-small-cell lung cancer patients; Phase I; cited from earlier work
[2] = test system: NCI-H446 human cancer cell line; assay: Cytotoxic activity (cell proliferation inhibition rate, xCELLigence) with human PBMCs; type: cell-based; details: human PBMCs as effector cells; NCI-H446 target cells; 72 hours
Experimental: Using a syringe preloaded with 100 μL of 1,000 units/mL heparin solution (Novo Heparin for injection, 5000 units, Novo Nordisk), 50 mL of peripheral blood was collected from each healthy volunteer (adult individual). This peripheral blood was diluted two-fold in PBS(−), divided into four aliquots, and added into a Leucosep tube for lymphocyte separation (Cat. No. 227290, Greiner Bio-One) that had been loaded with 15 mL of Ficoll-Paque PLUS and subjected to centrifugation in advance. This separation tube was centrifuged (at 2150 rpm for ten minutes at room temperature), and then the mononuclear cell fraction was collected. The cells in the mononuclear cell fraction were washed once with the Dulbecco's Modified Eagle's Medium containing 10% FBS (manufactured by SIGMA, hereinafter referred to as 10% FBS/D-MEM), and then prepared to have a cell density of 4×10^6 cells/mL using 10% FBS/D-MEM. The cell suspension prepared this way was used as the human PBMC solution in the experiment below.
Cytotoxic activity was assessed by the rate of cell proliferation inhibition using the xCELLigence Real-Time Cell Analyzer (Roche Diagnostics). […]
Cytotoxic activity was measured by the method described in Reference Example 1-3-2.
CDR and FR were determined according to the Kabat definition (Kabat numbering). […]

[3] = test system: PC-10 xenograft tumor; assay: In vivo drug efficacy, NOD scid/T cell-injected model, PC-10; parameters: species or system NOD scid mice; details: 1 mg/kg once through the tail vein, compared to the vehicle-administered group
Experimental: Methods called an NOD scid/T cell-injected model, a humanized NOG mouse model, and a human CD3εδγ gene-modified mouse model were used in the in vivo drug efficacy evaluation. Assay using an NOD scid/T cell-injected model was performed as follows. […] T cells expanded by culturing human PBMCs in vitro were injected into the NOD scid mice with confirmed tumor establishment. The mice were treated by administering bispecific antibody-38 and bispecific antibody-30, -31, -32, or -33. Assay using a humanized NOG mouse model was performed as follows. CD34-positive hematopoietic stem cells derived from umbilical cord blood were transplanted into NOG mice by tail vein injection. Human T cells are constantly supplied in the mice, which are called humanized NOG mice. The PC-10 cell line was transplanted into humanized NOG mice. The humanized NOG mice with confirmed establishment of PC-10 tumor were treated by administering antibody-38. Assay using a human CD3εδγ gene-modified mouse model was performed as follows. Cells of mouse-derived cell line forced to express human GPC3 were transplanted into a human CD3εδγ gene-modified mouse model, which had been prepared according to Reference Example 10. The human CD3εδγ gene-modified mice with confirmed tumor establishment were treated by administering antibody-38. […]

Question: Which maximum tolerable dose [1] does the source give for catumaxomab here?
Answer: Its maximum tolerable dose is 5 g/body.

B1: GPC3_ERY27_hCE115: humanized anti-human CD3ε chain and anti-human GPC3 bispecific antibody (SEQ ID NOs: 54, 55, and 56) (protein)
chain 1: QVQLVQSGAEVKKPGASVKVSCKASGYTFTDYEMHWIRQPPGQGLEWIGAIDPKTGDTAYSQKFKGRVTLTADKSTSTAYMELSSLTSEDTAVYYCTRFYSYTYWGQGTLVTVSSASTKGPSVFPLAPCSRSTSESTAALGCLVKDYFPEPVTVSWNSGALTSGVHTFPAVLQSSGLYSLSSVVTVPSSSLGTKTYTCNVDHKPSNTKVDKRVESKYGPPCPPCPAPEFRGGPKVFLFPPKPKDTLMISRTPEVTCVVVDVSQEDPEVQFNWYVDGVEVHNAKTKPREEQFASTYRVVSVLTVLHQDWLNGKEYKCKVSNKGLPSSIEKTISKAKGQPREPQVYTLPPSQKEMTKNQVSLTCLVKGFYPSDIAVEWESNGQPENNYKTTPPVLDSDGSFFLYSRLTVDKSRWQEGNVFSCSVMHEALHNRYTQKSLSLSLHHHHHHHH
chain 2: QVQLVESGGGVVQPGRSLRLSCAASGFTFSNAWMHWVRQAPGKGLEWVAQIKAKSNNYATYYAESVKGRFTISRDDSKNSLYLQMNSLKTEDTAVYYCRYVHYGAYYGVDAWGQGTTVTVSSASTKGPSVFPLAPCSRSTSESTAALGCLVKDYFPEPVTVSWNSGALTSGVHTFPAVLQSSGLYSLSSVVTVPSSSLGTKTYTCNVDHKPSNTKVDKRVESKYGPPCPPCPAPEFRGGPKVFLFPPKPKDTLMISRTPEVTCVVVDVSQEDPEVQFNWYVDGVEVHNAKTKPREEQFASTYRVVSVLTVLHQDWLNGKEYKCKVSNKGLPSSIEKTISKAKGQPREPQVYTLPPSQEEMTKNQVSLTCLVKGFYPSDIAVEWESNGQPENNYKTTPPVLDSDGSFFLYSRLTVDKSRWQEGNVFSCSVMHEALHNHYTQESLSLSLDYKDDDDK
chain 3: DIVMTQSPLSLPVTPGEPASISCRSSQSLVHSNRNTYLHWYQQKPGQAPRLLIYKVSNRFSGVPDRFSGSGSGTDFTLKISRVEAEDVGVYYCGQGTQVPYTFGQGTKLEIKRTVAAPSVFIFPPSDEQLKSGTASVVCLLNNFYPREAKVQWKVDNALQSGNSQESVTEQDSKDSTYSLSSTLTLSKADYEKHKVYACEVTHQGLSSPVTKSFNRGEC
modifications: An artificially generated sequence
Question: With B1 as the molecule, how does the “cytotoxic activity (T-cell-dependent cellular cytotoxicity)” value [2] read?
Answer: Its value is “reduction of the activity; also recorded: lower”.

B2: GPC3_ERY22_rCE115: heterodimeric bispecific antibody of GL4-ERY22_Hk, H0000-ERY22_L, rCE115H-ERY22_Hh, rCE115L-k0 (SEQ ID NOs: 47-50) (antibody)
heavy 1: DIVMTQSPLSLPVTPGEPASISCRSSQSLVHSNRNTYLHWYQQKPGQAPRLLIYKVSNRFSGVPDRFSGSGSGTDFTLKISRVEAEDVGVYYCSQNTHVPPTFGQGTKLEIKSSASTKGPSVFPLAPSSKSTSGGTAALGCLVKDYFPEPVTVSWNSGALTSGVHTFPAVLQSSGLYSLSSVVTVPSSSLGTQTYICNVNHKPSNTKVDKKVEPKSCDKTHTCPPCPAPEAAGGPSVFLFPPKPKDTLMISRTPEVTCVVVDVSHEDPEVKFNWYVDGVEVHNAKTKPREEQYASTYRVVSVLTVLHQDWLNGKEYKCKVSNKALPAPIEKTISKAKGQPREPQVCTLPPSRDELTKNQVSLWCLVKGFYPSDIAVEWESNGQPENNYKTTPPVLDSDGSFFLYSKLTVDKSRWQQGNVFSCSVMHEALHNHYTQKSLSLSPHHHHHHHH
light 1: QVQLVQSGAEVKKPGASVKVSCKASGYTFTDYEMHWIRQPPGQGLEWIGAIDPKTGDTAYSQKFKGRVTLTADKSTSTAYMELSSLTSEDTAVYYCTRFYSYTYWGQGTLVTVSSASVAAPSVFIFPPSDEQLKSGTASVVCLLNNFYPREAKVQWKVDNALQSGNSQESVTEQDSKDSTYSLSSTLTLSKADYEKHKVYACEVTHQGLSSPVTKSFNRGEC
heavy 2: EVQLVETGGSLVQPGKSLKLTCATSGFTFSNAWMHWVRQSPEKQLEWVAQIKAKSNNYATYYAESVKGRFTISRDDSKSNIYLQMNSLKEEDTAVYYCRYVHYGAYYGVDAWGQGTSVTVSSASTKGPSVFPLAPSSKSTSGGTAALGCLVKDYFPEPVTVSWNSGALTSGVHTFPAVLQSSGLYSLSSVVTVPSSSLGTQTYICNVNHKPSNTKVDKKVEPKSCDKTHTCPPCPAPEAAGGPSVFLFPPKPKDTLMISRTPEVTCVVVDVSHEDPEVKFNWYVDGVEVHNAKTKPREEQYASTYRVVSVLTVLHQDWLNGKEYKCKVSNKALPAPIEKTISKAKGQPREPQVYTLPPSRCELTKNQVSLSCAVKGFYPSDIAVEWESNGQPENNYKTTPPVLDSDGSFFLVSKLTVDKSRWQQGNVFSCSVMHEALHNHYTQKSLSLSPDYKDDDDK
light 2: DVVMTQTPVSMSVSLGGQVSISCRSSQSLVHNNGNTYVSWYIQKPSQSPQLLIYKVSNRFSGISDRFSGSGSGTDFTLKISRVEPDDLGVYYCGQGTQDPYTFGAGTKLELKRTVAAPSVFIFPPSDEQLKSGTASVVCLLNNFYPREAKVQWKVDNALQSGNSQESVTEQDSKDSTYSLSSTLTLSKADYEKHKVYACEVTHQGLSSPVTKSFNRGEC
modifications: An artificially generated sequence
Question: With B2 as the molecule, how does the “cytotoxic activity (T-cell-dependent cellular cytotoxicity)” value [2] read?
Answer: The value was “very strong activity”.

B3: antibody-39: bispecific antibody; CD3-binding variable region SEQ ID NO: 433, GPC-binding SEQ ID NO: 434, common L chain SEQ ID NO: 435 (antibody)
heavy 1: QVQLVQSGAEVKKPGASVKVSCKASGYTFTDYEMHWIRQPPGQGLEWIGAIDPKTGDTAYSQKFKGRVTLTADKSTSTAYMELSSLTSEDTAVYYCTRFYSYTYWGQGTLVTVSS
heavy 2: EVQLVETGGSLVQPGKSLKLTCATSGFTFSNAWMHWVRQSPEKQLEWVAQIKAKSNNYATYYAESVKGRFTISRDDSKSNIYLQMNSLKEEDTAVYYCRYVHYGAYYGVDAWGQGTSVTVSS
light: DIVMTQSPLSLPVTPGEPASISCRSSQSLVHSNRNTYLHWYQQKPGQAPRLLIYKVSNRFSGVPDRFSGSGSGTDFTLKISRVEAEDVGVYYCGQGTQVPYTFGQGTKLEIK
modifications: An artificially generated sequence
Question: For B3, which anti-tumor effect [3] is on record?
Answer: The anti-tumor effect was “evident anti-tumor effect”.
